Source: PMC11109247

Experiments:
[1] = target: T1, sF ectodomain (Nipah henipavirus), Q9IH63; assay: MST; conditions: modification not given
T1 chain: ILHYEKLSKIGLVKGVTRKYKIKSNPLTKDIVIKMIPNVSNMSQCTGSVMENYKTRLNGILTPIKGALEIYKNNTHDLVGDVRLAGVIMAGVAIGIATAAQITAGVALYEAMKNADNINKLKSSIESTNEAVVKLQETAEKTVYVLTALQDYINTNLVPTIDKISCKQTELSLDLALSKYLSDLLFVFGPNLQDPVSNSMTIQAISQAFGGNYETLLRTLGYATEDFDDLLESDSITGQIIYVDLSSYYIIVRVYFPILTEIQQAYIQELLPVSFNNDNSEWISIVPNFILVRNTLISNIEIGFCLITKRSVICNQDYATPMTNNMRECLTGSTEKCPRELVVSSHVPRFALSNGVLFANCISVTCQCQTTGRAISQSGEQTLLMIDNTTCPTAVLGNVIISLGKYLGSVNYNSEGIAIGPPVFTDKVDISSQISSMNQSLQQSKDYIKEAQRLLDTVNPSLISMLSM

[2] = target: T1, sF ectodomain (Nipah henipavirus), …; assay: BLI; conditions: modification not given

B1: P-59 peptide peptide P-59, Q9IH62 (peptide)
chain: HECNISCPNPLPFREYRPQTEGV
B1 showed a Kd [1] of 5000 nM and a Kd [2] of 190 nM.
